We go through 3 molecules from patent US20250002577A1 (ONCORESPONSE, published 2025).

For assay [1], the target named is T1, human LILRB2 on cells (human, UniProt Q8N423 22-597).
T1 construct: whole, on cells; also called hLILRB2; LILRB2-HEK293T
The experiment in a line: flow cytometry, LILRB2-HEK293T cells, AF647-labelled antibody. The procedure: (§1) While LILRB2 expression is mostly restricted to myeloid cells, LILRB1 has a broader expression on immune cell subsets, including B cells, T cells and NK cells.
(§2) Frozen cells were removed from storage in vapor phase liquid nitrogen and thawed by gentle swirling in a water bath at 37° C., then resuspended in DMEM media with 10% FBS. Cells were placed in a 15 mL conical tube and centrifuged at 300×g for 5 min, then supernatant was removed. Cells were resuspended in DMEM+10% FBS at a cell density of 2×10⁵ cells/mL in a T75 flask for culturing, and incubated at 37° C., 5% CO₂ for 3 days before passaging. Cells were passaged when the cell density reached 1×10⁶ cell/mL. On the day of the assay, cells were centrifuged, then supernatant was removed. Cells were resuspended in Blocking Buffer B (FACS Buffer containing 10% FBS and 0.5 mg/mL human IgG1 (Athens Research, No. 16-16-090707-1M)+0.05% NaN₃, 5% (w/v)) in a 15 mL conical tube, then incubated at 4° C. for 30 min. […] Cells were incubated with antibodies at 4° C. for 1 h. Cells were washed twice in FACS Buffer (PBS containing 2 mM EDTA+1% FBS+0.05% NaN₃) and then stained with for 10 min with Zombie Violet™ fixable viability dye (BioLegend, No. 423114) at RT, washed with FACS Buffer and resuspend in 75 μL of FACS Buffer for acquisition on a BD FACSymphony™ or BD FACSCanto™ II flow cytometer (BD Biosciences), as described in Example 6.

Assay [2] has as its target T2, human LILRA2 on HEK293-6E cells (human, UniProt Q8N149 24-483).
T2 construct: whole, on cells; also called hLILRA2
Kind of assay: flow cytometry, HEK293-6E transfectants. The protocol: (§3) To determine that the parent chimera anti LILRB2/1 antibody specifically binds to LILRB2 and LILRB1 and not to other LILRB and LILRA family members, a cross-reactivity assay was performed. Cross-reactivity was assessed by antibody binding to transiently transfected HEK293-6E cells by flow cytometry. Binding was evaluated to HEK293-6E cells transiently transfected with human LILRB-1, -2, -3, -4, and 5 plasmids (Origene, Nos. RC219949, RC217935, RC211228, RC220932, RC206516) or to cells transiently transfected with human LILRA-1, -2, -4, -5, and -6 plasmids (Origene, Nos. RC210808, RC205626, RC220452, RC212310 RC212965). […] At a concentration of 1 μg/mL, no binding of B21A1 or the humanized variants to LILRB-3, -4, or -5 was observed (Table 7). Additionally, no binding to LILRA-1, -2, -4, -5, or -6 was observed, confirming the specificity of B21A1 and its humanized variants to LILRB1 and LILRB2 (Table 8).

The target of assay [3] is T3, human LILRB3 on HEK293-6E cells (human, UniProt O75022 24-631).
T3 construct: whole, on cells; also called hLILRB3
Kind of assay: flow cytometry, HEK293-6E transfectants. The protocol:
as §3

Assay [4] addresses T4, human LILRB4 on HEK293-6E cells (human, UniProt Q8NHJ6 22-448).
T4 construct: whole, on cells; also called hLILRB4
The experiment in a line: flow cytometry, HEK293-6E transfectants. The protocol: as §3

Assay [5] deals with T5, human LILRA1 on HEK293-6E cells (human, UniProt O75019 17-489).
T5 construct: whole, on cells; also called hLILRA1
Kind of assay: flow cytometry, HEK293-6E transfectants. The protocol: as §3

In assay [6] the target is T1, human LILRB2 on cells. Kind of assay: flow cytometry, HEK293-6E transfectants. The procedure: as §3
In assay [7] the target is T6, human LILRB1 on cells (human, UniProt Q8NHL6 24-650).
T6 construct: whole, on cells; also called hLILRB1; LILRB1-expressing 721.221 cells
Kind of assay: flow cytometry, HEK293-6E transfectants. The procedure:
as §3

The target in assay [8] is T7, human LILRA5 on HEK293-6E cells (human, UniProt A6NI73 42-299).
T7 construct: whole, on cells; also called hLILRA5
Kind of assay: flow cytometry, HEK293-6E transfectants. The protocol:
as §3

In assay [9] the target is T8, human LILRB5 on HEK293-6E cells (human, UniProt O75023 24-590).
T8 construct: whole, on cells; also called hLILRB5
The experiment in a line: flow cytometry, HEK293-6E transfectants. The procedure:
as §3

For assay [10], the target named is T9, human LILRA4 on HEK293-6E cells (human, UniProt P59901 24-499).
T9 construct: whole, on cells; also called hLILRA4
Kind of assay: flow cytometry, HEK293-6E transfectants. The protocol:
as §3

Assay [11] addresses T10, human LILRA6 on HEK293-6E cells (human, UniProt Q6PI73 24-481).
T10 construct: whole, on cells; also called hLILRA6
The experiment in a line: flow cytometry, HEK293-6E transfectants. The procedure: as §3

In assay [12] the target is T11, recombinant human LILRB1-His (human, UniProt Q8NHL6 24-458).
T11 construct: Bought protein; also called LILRB1 protein
The experiment in a line: MSD ELISA, coated antigen, purified IgG1. The protocol: (§4) Recombinant human and cynomolgus LILRB1 proteins (R&D Systems, No. 8989-T2-050; ACROBiosystems, No. CDJ-C52H3) and recombinant human and cynomolgus LILRB2 proteins (ACROBiosystems, No. LI2-H5220; No. L12-C52H3) were diluted in PBS to 4 μg/mL and added to a multi-array 384-well high-binding plates (MSD, No. L21XA4) at 10 μL/well and incubated at 4° C. overnight. The plates were washed several times with Wash Buffer (0.05% Tween® 20 in PBS), using a microplate washer and then blocked with 70 μL/well of 5% BSA in PBS for 1 hour (h) at room temperature (RT) with shaking at 700 rpm. After blocking, 20 μL/well of anti-LILRB2/LILRB1 antibodies or isotype control were added to the plates, and the plates were sealed and incubated for 2 h at RT with shaking at 700 rpm. After primary antibody binding, plates were washed five times with 70 μL/well of Wash Buffer (0.05% Tween® 20 in PBS) using a microplate washer. Secondary detection antibody (SULFO-TAG™-labeled goat anti-human IgG antibody (MSD, No. R32AJ-1)) was diluted to 4 μg/mL in assay diluent (1% BSA in PBS) and 10 μL/well was added to plates and incubated at RT protected from light for 1 h, with shaking at 700 rpm. Following incubation, plates were washed five times with Wash Buffer, using a microplate washer. After removal of the final wash, 35 μL/well of MSD Gold Read Buffer B (MSD, No. R60AM-4) was added to all wells using a Multidrop combo washer/dispenser, and plates were read using MESO Sector 600MM instrument (MSD) within 5 minutes (min) after addition of Read Buffer. Signals as counts per minute (cpm) were recorded. EC₅₀ values were calculated using GraphPad Prism based on log concentration of the primary antibodies versus cpm values.

For assay [13], the target named is T12, recombinant cynomolgus LILRB1 (cynomolgus).
T12 construct: Bought protein
The experiment in a line: MSD ELISA, coated antigen, purified IgG1. The protocol:
as §4

Assay [14] concerns the target T13, recombinant human LILRB2-His (human, UniProt Q8N423 22-461, limits assumed).
T13 construct: Bought protein; also called LILRB2 protein
The experiment in a line: MSD ELISA, coated antigen, purified IgG1. The procedure: as §4

In assay [15] the target is T6, human LILRB1 on cells. The experiment in a line: flow cytometry, 721.221 cells, AF647-labelled antibody. The protocol: as §1, §2

Where a chain is given by its changes, count along the chain named.

T7 sequence (A6NI73 42-299): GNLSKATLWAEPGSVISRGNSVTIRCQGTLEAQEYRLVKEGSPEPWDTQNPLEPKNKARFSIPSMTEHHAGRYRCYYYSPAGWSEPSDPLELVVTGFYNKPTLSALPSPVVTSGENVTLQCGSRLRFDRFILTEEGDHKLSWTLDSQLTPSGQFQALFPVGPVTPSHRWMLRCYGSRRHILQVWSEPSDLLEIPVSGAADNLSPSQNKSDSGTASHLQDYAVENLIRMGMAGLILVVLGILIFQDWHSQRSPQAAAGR
T5 sequence (O75019 17-489): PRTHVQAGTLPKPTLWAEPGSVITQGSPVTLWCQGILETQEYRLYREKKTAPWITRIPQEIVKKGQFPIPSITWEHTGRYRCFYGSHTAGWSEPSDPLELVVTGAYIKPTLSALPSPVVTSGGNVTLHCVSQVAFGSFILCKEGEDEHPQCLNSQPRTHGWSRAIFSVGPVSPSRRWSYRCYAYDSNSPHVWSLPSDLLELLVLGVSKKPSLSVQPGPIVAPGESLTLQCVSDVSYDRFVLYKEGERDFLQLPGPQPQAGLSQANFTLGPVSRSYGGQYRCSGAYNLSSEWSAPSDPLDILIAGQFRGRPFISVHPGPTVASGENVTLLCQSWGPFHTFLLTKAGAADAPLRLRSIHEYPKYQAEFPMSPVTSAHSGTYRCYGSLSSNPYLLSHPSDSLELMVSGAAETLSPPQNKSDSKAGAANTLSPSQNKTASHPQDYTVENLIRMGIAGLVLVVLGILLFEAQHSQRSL
T3 sequence (O75022 24-631): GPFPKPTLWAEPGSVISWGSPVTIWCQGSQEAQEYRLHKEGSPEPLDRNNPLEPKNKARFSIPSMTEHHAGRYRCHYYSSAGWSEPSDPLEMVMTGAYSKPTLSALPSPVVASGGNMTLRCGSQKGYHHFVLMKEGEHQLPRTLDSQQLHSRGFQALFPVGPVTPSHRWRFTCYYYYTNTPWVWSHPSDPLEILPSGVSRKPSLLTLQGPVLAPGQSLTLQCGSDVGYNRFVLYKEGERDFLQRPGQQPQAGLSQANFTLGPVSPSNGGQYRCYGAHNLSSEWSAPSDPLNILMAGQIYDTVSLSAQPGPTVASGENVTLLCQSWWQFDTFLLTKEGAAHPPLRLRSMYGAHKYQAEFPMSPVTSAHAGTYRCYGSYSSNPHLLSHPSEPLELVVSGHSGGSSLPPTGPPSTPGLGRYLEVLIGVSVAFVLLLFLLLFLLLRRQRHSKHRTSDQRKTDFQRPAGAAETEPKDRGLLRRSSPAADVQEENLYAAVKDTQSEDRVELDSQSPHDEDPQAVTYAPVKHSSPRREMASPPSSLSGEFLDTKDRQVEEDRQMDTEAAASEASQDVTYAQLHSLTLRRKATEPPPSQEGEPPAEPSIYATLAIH
T6 sequence (Q8NHL6 24-650): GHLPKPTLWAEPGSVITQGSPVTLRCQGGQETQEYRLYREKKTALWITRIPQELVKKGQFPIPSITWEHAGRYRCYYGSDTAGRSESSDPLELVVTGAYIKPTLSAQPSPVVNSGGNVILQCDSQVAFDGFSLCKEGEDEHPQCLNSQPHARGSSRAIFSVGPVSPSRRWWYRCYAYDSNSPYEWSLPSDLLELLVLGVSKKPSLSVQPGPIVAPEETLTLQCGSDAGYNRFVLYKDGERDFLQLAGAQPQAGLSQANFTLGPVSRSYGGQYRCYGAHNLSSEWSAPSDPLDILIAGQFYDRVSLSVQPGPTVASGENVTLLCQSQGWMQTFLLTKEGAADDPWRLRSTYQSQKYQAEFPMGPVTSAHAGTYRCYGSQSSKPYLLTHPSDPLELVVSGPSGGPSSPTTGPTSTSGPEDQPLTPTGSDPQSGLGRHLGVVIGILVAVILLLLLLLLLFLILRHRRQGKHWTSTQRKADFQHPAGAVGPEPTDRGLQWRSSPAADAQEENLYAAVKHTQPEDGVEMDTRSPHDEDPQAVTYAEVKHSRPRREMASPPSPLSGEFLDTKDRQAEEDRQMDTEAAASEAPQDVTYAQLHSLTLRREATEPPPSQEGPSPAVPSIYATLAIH
T1 sequence (Q8N423 22-597): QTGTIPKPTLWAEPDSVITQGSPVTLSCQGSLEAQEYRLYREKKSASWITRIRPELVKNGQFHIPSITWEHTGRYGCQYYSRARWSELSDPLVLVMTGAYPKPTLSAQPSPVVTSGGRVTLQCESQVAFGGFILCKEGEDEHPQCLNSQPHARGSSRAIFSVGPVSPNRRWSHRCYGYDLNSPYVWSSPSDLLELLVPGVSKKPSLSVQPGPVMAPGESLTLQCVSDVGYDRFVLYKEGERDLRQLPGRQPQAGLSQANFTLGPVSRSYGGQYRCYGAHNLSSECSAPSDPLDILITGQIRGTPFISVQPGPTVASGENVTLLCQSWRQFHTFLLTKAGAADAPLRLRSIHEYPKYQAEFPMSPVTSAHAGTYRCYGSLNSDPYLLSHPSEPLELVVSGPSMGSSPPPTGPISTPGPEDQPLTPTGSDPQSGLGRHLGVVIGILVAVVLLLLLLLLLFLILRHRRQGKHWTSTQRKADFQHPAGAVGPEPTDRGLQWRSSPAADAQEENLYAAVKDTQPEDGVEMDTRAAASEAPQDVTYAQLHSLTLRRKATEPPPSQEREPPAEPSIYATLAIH
T2 sequence (Q8N149 24-483): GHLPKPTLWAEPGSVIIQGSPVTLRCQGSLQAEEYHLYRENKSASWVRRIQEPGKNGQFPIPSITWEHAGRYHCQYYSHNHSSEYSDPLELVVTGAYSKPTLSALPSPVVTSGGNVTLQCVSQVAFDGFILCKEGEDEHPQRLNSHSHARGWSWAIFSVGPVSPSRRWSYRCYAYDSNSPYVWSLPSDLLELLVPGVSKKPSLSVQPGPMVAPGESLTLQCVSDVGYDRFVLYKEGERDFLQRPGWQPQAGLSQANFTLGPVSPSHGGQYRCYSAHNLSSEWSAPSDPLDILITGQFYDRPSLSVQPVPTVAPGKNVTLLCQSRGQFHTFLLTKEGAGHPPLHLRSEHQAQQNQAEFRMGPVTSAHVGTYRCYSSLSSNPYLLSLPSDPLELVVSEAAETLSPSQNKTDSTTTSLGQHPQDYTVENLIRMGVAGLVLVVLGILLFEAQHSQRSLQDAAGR
T10 sequence (Q6PI73 24-481): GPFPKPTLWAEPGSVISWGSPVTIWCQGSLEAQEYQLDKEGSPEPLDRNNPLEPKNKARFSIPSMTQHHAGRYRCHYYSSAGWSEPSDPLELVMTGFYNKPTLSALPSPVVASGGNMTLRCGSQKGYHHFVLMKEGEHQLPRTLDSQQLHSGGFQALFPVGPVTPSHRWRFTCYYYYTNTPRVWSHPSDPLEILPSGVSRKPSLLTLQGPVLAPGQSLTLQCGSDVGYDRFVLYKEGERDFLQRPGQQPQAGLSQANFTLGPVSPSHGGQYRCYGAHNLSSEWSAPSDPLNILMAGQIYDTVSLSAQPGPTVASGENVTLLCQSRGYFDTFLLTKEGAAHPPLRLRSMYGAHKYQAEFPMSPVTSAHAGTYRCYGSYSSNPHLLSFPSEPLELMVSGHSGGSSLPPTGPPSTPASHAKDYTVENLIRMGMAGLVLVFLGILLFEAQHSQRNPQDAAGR
T13 sequence (Q8N423 22-461 limits assumed): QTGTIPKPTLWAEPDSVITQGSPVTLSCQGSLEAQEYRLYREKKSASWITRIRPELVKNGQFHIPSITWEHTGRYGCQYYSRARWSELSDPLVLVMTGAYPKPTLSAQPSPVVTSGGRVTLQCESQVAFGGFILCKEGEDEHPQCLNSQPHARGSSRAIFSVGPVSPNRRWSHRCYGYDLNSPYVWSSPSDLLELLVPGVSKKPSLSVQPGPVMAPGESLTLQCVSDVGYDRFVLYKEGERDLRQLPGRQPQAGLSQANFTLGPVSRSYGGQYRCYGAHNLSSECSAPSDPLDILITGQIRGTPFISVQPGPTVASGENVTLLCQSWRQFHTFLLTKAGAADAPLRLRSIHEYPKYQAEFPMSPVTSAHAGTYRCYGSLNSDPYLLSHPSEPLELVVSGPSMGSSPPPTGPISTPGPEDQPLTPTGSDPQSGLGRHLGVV
T8 sequence (O75023 24-590): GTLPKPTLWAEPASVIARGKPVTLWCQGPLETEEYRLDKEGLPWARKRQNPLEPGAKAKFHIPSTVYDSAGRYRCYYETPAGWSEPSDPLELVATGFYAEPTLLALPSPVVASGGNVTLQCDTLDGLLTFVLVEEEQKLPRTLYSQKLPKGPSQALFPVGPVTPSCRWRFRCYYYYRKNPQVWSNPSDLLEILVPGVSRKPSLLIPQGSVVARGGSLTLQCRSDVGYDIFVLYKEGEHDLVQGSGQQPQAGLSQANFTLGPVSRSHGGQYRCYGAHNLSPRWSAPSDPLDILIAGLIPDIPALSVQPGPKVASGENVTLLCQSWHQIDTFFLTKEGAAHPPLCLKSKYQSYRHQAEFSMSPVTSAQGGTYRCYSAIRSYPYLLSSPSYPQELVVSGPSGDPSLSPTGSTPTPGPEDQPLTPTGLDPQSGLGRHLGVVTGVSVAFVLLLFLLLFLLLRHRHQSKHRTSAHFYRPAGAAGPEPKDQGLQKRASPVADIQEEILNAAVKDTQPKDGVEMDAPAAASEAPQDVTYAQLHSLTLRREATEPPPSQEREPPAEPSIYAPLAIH
T11 sequence (Q8NHL6 24-458 limits assumed): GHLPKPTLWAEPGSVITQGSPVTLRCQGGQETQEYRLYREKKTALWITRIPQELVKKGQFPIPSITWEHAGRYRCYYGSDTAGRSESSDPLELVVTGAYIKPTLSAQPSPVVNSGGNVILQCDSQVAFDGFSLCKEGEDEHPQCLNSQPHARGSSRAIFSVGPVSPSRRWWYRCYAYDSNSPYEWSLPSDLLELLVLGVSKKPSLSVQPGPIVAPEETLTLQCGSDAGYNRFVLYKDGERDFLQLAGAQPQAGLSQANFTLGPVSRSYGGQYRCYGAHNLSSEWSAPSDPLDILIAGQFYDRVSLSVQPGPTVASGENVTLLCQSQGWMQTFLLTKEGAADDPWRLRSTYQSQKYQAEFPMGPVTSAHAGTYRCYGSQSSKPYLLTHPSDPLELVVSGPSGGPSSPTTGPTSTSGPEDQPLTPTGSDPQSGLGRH

B1: B21H1-33 (antibody, human IgG1, kappa)
heavy: not shown
light: DIVMTQSPSSVSASVGDRVTITCQASGNIYSFLAWYQQKPGKAPKLLIYTASNLETGVPSRFSGSGSGTDFTLTISSLQPEDFATYYCLGGLYSSDVSYAFGGGTKVVIKRTVAAPSVFIFPPSDEQLKSGTASVVCLLNNFYPREAKVQWKVDNALQSGNSQESVTEQDSKDSTYSLSSTLTLSKADYEKHKVYACEVTHQGLSSPVTKSFNRGEC
notes: humanized IgG1/kappa, VH3+VL3
Take B1: the EC50 in assay [1] was determined as 0.00144 µg/mL; in assay [12], 0.00616 µg/mL; in assay [13] it was 5.85 µg/mL; in [14], 0.0225 µg/mL. Also, the MFI in assay [2] was 25.9 MFI; in assay [3] it was 89.2 MFI; in assay [4], 27.4 MFI; in [5], 204 MFI; in assay [6] it was 6290 MFI; in [7] it was 860 MFI. Besides, the MFI in [8] turned out to be 73.1 MFI; in assay [9], 85.8 MFI; in assay [10], 112 MFI; in assay [11], 140 MFI. For the same molecule, the binding result in [2], in assay [3], in [4], in [5], in [8] and in assay [9] was “no binding (tested: 1 µg/mL)” each time. For the same molecule, the binding result in assay [10] and in assay [11] was “no binding (tested: 1 µg/mL)” throughout.

B2: B21A1 (antibody, human IgG1, kappa)
heavy: not shown
light: DIVMTQTPASVEAAVGGTVTINCQASGNIYSFLAWYQQKPGQPPKLLIYTASNLETGVPSRFSGSGSGTEYTLTISGVQCDDAATYYCLGGLYSSDVSYAFGGGTEVVVKRTVAAPSVFIFPPSDEQLKSGTASVVCLLNNFYPREAKVQWKVDNALQSGNSQESVTEQDSKDSTYSLSSTLTLSKADYEKHKVYACEVTHQGLSSPVTKSFNRGEC
notes: Rabbit/human chimera, human IgG1/kappa; AF647-conjugated in the flow cytometry titrations; also called B21A1 chimera IgG1; parent B21A1
Take B2: the EC50 in assay [1] is 0.0008 µg/mL; in assay [15], 0.0448 µg/mL; in [12], 0.0105 µg/mL; in [13], 0.306 µg/mL; in assay [14], 0.038 µg/mL. Moreover, the MFI in assay [2] is 30.2 MFI; in assay [3] it was 107 MFI; in assay [4], 35.2 MFI; in assay [5], 264 MFI; in [6], 5380 MFI; in assay [7], 940 MFI. Further, the MFI in assay [8] was found to be 78.5 MFI; in assay [9], 101 MFI; in assay [10], 143 MFI; in assay [11], 150 MFI. Also, the binding result in [2], in assay [3], in assay [4], in [5], in [8] and in assay [9] was “no binding (tested: 1 µg/mL)” each time. Further, the binding result in assay [10] and in assay [11] was “no binding (tested: 1 µg/mL)” each time.

B3: B21H1-45 (antibody, human IgG1, kappa)
heavy: not shown
light: B2 light with V3Q, A9S, S10T, A14S, N22T, V78L, C80S
notes: humanized IgG1/kappa, VH4+VL5
As for B3, the EC50 in assay [1] stood at 0.00086 µg/mL; in assay [15] it was 0.0616 µg/mL; in [12], 0.0134 µg/mL; in assay [13], 0.284 µg/mL; in assay [14], 0.0461 µg/mL. Besides, the MFI turned out to be 26.2 MFI in [2]; 81 MFI in assay [3]; 27.2 MFI in assay [4]; 264 MFI in assay [5]; 6680 MFI in assay [6]; 997 MFI in assay [7]. In addition, the MFI in assay [8] came to 71 MFI; in assay [9] it was 83.6 MFI; in assay [10], 108 MFI; in assay [11], 135 MFI. Also, the binding result in assay [2], in assay [3], in [4], in [5], in assay [8] and in assay [9] was “no binding (tested: 1 µg/mL)” in each case. For the same molecule, the binding result in [10] and in assay [11] was “no binding (tested: 1 µg/mL)” each time.
